Series [1] concerns the target T1, DdrC (Deinococcus radiodurans R1 ATCC 13939, UniProt Q9RYE6 1-231).
T1 sequence: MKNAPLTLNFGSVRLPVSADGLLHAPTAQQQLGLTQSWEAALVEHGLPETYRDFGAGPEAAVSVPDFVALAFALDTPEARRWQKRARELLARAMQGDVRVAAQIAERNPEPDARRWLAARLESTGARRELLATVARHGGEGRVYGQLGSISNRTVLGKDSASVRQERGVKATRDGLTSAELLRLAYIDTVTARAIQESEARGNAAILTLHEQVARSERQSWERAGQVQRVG
In words: EMSA; same efficiency as 37% GC 81-mer; DdrC 0.175-2.8 uM; Buffer A: 40 mM Tris-HCl pH 7.8, 5 mM MgCl2, 1.5 mM DTT, 50 mM NaCl, 12% glycerol; 4 C (15 min stated for plasmid/viral DNA); gels run at 4 C. Particulars: protein: recombinant; tags: C-terminal 6xHis (pET26b); label: 5' Cy5. Background: A gel shift assay detects complexes by their altered migration in electrophoresis.

Series [2] deals with T1, DdrC. The series can be described thus: EMSA; same efficiency as 65.4% GC 81-mer; DdrC 0.175-2.8 uM; Buffer A: 40 mM Tris-HCl pH 7.8, 5 mM MgCl2, 1.5 mM DTT, 50 mM NaCl, 12% glycerol; 4 C (15 min stated for plasmid/viral DNA); gels run at 4 C. The following applies: protein: recombinant; tags: C-terminal 6xHis (pET26b); label: 5' Cy5.
Series [3] has as its target T1, DdrC. In words: EMSA; discrete complex band appears at 40 nM DdrC; 3.3 nM DNA; Buffer A: 40 mM Tris-HCl pH 7.8, 5 mM MgCl2, 1.5 mM DTT, 50 mM NaCl, 12% glycerol; 4 C (15 min stated for plasmid/viral DNA); gels run at 4 C. Particulars: protein: recombinant; tags: C-terminal 6xHis (pET26b).

B1: 81-mer 65.4% GC (ssDNA)
DNA: GTTGCTGGACGTACAGCGCCACTATGGCCGCCTGGGCTGGACCAGCGGCGAGATTCCGTCCGGGGGCTACCAGTTTCCCAT
B1: the binding result in the series with DdrC [1] was “binds”.

B2: 81-mer 37% GC (ssDNA)
DNA: GATTACCACGAGGAGTATCTTAAGAATTCTGATATACTTGAAGAAGACATACAGGAACAAGAACAAAGACTGAACGAGCTT
As for B2, the binding result with DdrC [2] was “binds”.

B3: oligo-67 ss (ssDNA)
DNA: CTGTTTAAGAAATTCACCTCGAAAGCAAGCTGATAAACCGATACAATTAAAGGCTCCTTTTGGAGCC
For B3, the binding result with DdrC [3] is recorded as “binds”.

The values are drawn from paper PMC5436757, “In vivo and in vitro characterization of DdrC, a DNA damage response protein in Deinococcus radiodurans bacterium”.
